Positions count from the first letter of the chain named.
T1: A33 antigen (full-length human A33) (human, UniProt Q99795 22-319)
T1 construct: Class I cell membrane protein of the Ig superfamily; also called GPA33; human A33 antigen
T1 sequence: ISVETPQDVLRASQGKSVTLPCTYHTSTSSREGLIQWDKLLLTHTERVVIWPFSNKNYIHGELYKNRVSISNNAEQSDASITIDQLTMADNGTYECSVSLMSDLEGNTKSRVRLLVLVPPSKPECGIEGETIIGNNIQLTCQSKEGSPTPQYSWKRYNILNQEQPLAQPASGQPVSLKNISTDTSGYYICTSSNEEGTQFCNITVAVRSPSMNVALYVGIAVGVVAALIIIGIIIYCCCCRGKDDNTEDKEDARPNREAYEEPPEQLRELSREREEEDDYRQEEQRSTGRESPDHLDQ

B1: recQ54 (antibody, V domains shown)
VH: EVQLLESGGGLVQPGGSLRLSCAASGFTFSSYAMSWVRQAPGKGLEWVSDISGSGGYTYYADSVKGRFTISRDNSKNTLYLQMNSLRAEDTAVYYCAKTGDGSGSYSPDSWGQGTLVTVSS
VL: DIQMTQSPSSLSASVGDRVTITCRASQGISRWLAWYQQKPEKAPKSLIYAASSLQSGVPSRFSGSGSGTDFTLTISSLQPEDFATYYCQQYNSYPYTFGQGTKLEIK
notes: also called recQ54 antibody; Q54 recombinant antibody
B2: chimeric anti-A33 antibody (antibody, V domains shown)
VH: EVKLVESGGGLVKPGGSLKLSCAASGFAFSTYDMSWVRQTPEKRLEWVATISSGGSYTYYLDSVKGRFTISRDSARNTLYLQMSSLRSEDTALYYCAPTTVVPFAYWGQGTLVTVSS
VL: DIVMTQSQKFMSTSVGDRVSITCKASQNVRTVVAWYQQKPGQSPKTLIYLASNRHTGVPDRFTGSGSGTDFTLTISNVQSEDLADYFCLQHWSYPLTFGSGTKLEVK
notes: Mouse variable regions with human IgG1 heavy chain and light chain constant regions (N5KG1-Val Lark vector); also called cA33; chimeric anti-A33 recombinant antibody
B3: recM10 (antibody, V domains shown)
VH: QLQVQESGPGLVKPSETLSLICTVSGGSIRTSGYYWGWFRQPPGKGLEWIGTSHNSGSTYYNPSLKSRVTISVDTSKNQFSLKLNSVTAADTAVYYCARQGYDFKVNIDVWGQGTTVTVSS
VL: EIVLTQSPATLSLSPGERATLSCRASQSVSSYLAWYQQKPGQAPRLLIYDASNRATGIPARFSGSGSGTDFTLTISSLEPEDFAVYYCQQRSNWPLTFGGGTKVEIK
notes: also called recM10 antibody; M10 recombinant antibody
B4: recM165 (antibody, V domains shown)
VH: QVQLVESGGGVVQPGRSLRLSCAASGFTFSYYGMHWVRQAPGKGLEWVAVIWYDGSNKYYADSVKGRFTISRDNSKKTLYLQMNSLRAEDTAVYYCARDGHSSGWGDFQHWGQGTLVTVSS
VL: B3 VL with Y32S, V85I, L96P, G100Q
notes: also called recM165 antibody; M165 recombinant antibody
B5: recN26 (antibody, V domains shown)
VH: QVQLVESGGGVVQPGRSLRLSCAASGFTFSHYGMHWVRQAPGKGLEWVALIWYDGSNKYYADSVKGRFTISRDNSKNTLYLQMNSLRAEDTAVYYCARDPLAAGTSYFDYWGQGTLVTVSS
VL: EIVLTQSPDFQSVTPKEKVTITCRASQSIGSSLHWYQQKPDQSPKLLIKYASQSFSGVPSRFSGSGSGTDFTLTINSLEAEDAAAYYCHQSSSLPFTFGPGTKVDIK
notes: also called recN26 antibody; N26 recombinant antibody
B6: rec263 (antibody, V domains shown)
VH: EVQLLESGGGLVQPGGSLRLSCAASGFTFSSYAMSWIRQAPGKGLEWVSAISASGGSTYYADSVKGRFTISRDNSKNTLYLQMNSLRAEDTAVYYCAKDRIVGATNYYYGMDVWGQGTTVTVSS
VL: DIQMTQSPPSVSASVGDRVTITCRASQGISSWLAWYQHKPGKAPKLLIYGASSLQSGVPSRFSGSGSGTDFTLTISSLQPEDFATYYCQQANSFPITFGQGTRLEIK
notes: also called rec263 antibody; rec263A1

Target: T1, A33 antigen (full-length human A33)
Experiment: FCM on LS174T cells; grade = ng/ml to reach half MFI 100 (+++ 10<=x<100, ++ 100<=x<1000, + 1000<=x<10000)

How did the “antibody concentration required to reach half value of the mean fluorescence intensity” value turn out when B1 was run?
The value was 10 to 100 ng/mL.

For B2, which “antibody concentration required to reach half value of the mean fluorescence intensity” value is on record?
The value was 10 to 100 ng/mL.

For B3, which “antibody concentration required to reach half value of the mean fluorescence intensity” value is on record?
The value was 10 to 100 ng/mL.

With B4 as the binder, how does the “antibody concentration required to reach half value of the mean fluorescence intensity” value read?
The value was 100 to 1000 ng/mL.

B5 was tested. Which “antibody concentration required to reach half value of the mean fluorescence intensity” value did it give?
The value was 10 to 100 ng/mL.

For B6, which “antibody concentration required to reach half value of the mean fluorescence intensity” value is on record?
Its value is 100 to 1000 ng/mL.

Target: T1, A33 antigen (full-length human A33)
Experiment: FCM competition on COLO205 cells; antibody 1 µg/ml, competitor mouse anti-A33 antibody 100 µg/ml
Description: (§1) Whether or not each type of purified monoclonal antibody obtained in Example 8 recognizes an epitope similar to that of the mouse anti-A33 antibody was examined by a competition test using FCM. The COLO205 cell line was suspended at a concentration of 2×10⁶/ml in a PBS Staining Buffer (SB) containing 0.1% NaN₃ and 2% FCS. The cell suspension (50 μl/well) was dispensed in a 96-well round bottom plate (produced by Becton, Dickinson and Company). The purified mouse anti-A33 antibody prepared in Example 1 was not added or added at a concentration of 100 μg/ml to the wells containing each type of purified monoclonal antibody (1 μg/ml and 50 μl), followed by 30 minutes of incubation on ice. A mouse negative control (containing no purified anti-A33 antibody added thereto) was prepared as follows. A human IgG1 antibody (produced by Sigma) was adjusted at a concentration of 1 μg/ml with SB and then 50 μl of the solution was added, followed by 30 minutes of incubation on ice. The resultant was washed twice with SB and then 50 μl of FITC fluorescence-labeled goat anti-human IgG F(ab′)₂ antibody (produced by IBL) was added, followed by 30 minutes of incubation on ice. The resultant was washed once with SB and then the resultant was suspended in 300 μl of a FACS buffer. The mean fluorescence intensity of each cell line was measured by FACS (FACScan produced by Becton, Dickinson and Company). The inhibition (%) between each type of purified monoclonal antibody and the mouse A33 antibody was calculated by the following formula: […]

With B2 as the binder, how does the “Inhibition (%)” value read?
The value was 94.2%.

Target: T1, A33 antigen (full-length human A33)
Experiment: FCM on COLO205 cells; grade = ng/ml to reach half MFI 90 (+++ 10<=x<100, ++ 100<=x<1000, + 1000<=x<10000)
Description: (§2) The reactivity of each type of purified monoclonal antibody obtained in Example 8 to A33-antigen-expressing human colorectal cancer cell line COLO205 cells, LoVo cells (ATCC No. CCL-229), LS174T cells (ATCC No. CL-188), and NCI-H508 cells (ATCC No. CCL-253) was examined by FCM. Human colorectal cancer cell line HT-29 cells (ATCC No. HTB-38) expressing no A33 antigen were also examined as negative control cells. Each cell line was suspended at a concentration of 2×10⁶/ml in a PBS Staining Buffer (SB) containing 0.1% NaN₃ and 2% FCS. The cell suspension (50 μl/well) was dispensed in a 96-well round bottom plate (produced by Becton, Dickinson and Company). 50 μl of each type of purified monoclonal antibody (adjusted using SB at a concentration of 2000, 400, 80, or 16 ng/ml) was added, and then incubation was performed on ice for 30 minutes. A negative control was prepared depending on each subclass. Specifically, a human IgG1 antibody (produced by Sigma) was adjusted using SB at a concentration of 2000, 400, 80, or 16 ng/ml. 50 μl of the solution was added, followed by 30 minutes of incubation on ice. The resultant was washed twice with SB and then 50 μl of an FITC fluorescence-labeled goat anti-human IgG F(ab′)₂ antibody (produced by Southern Biotech), followed by 30 minutes of incubation on ice. The resultant was washed once with SB and then the resultant was suspended in 300 μl of a FACS buffer. The mean fluorescence intensity of each cell line was measured by FACS (FACScan produced by Becton, Dickinson and Company).
(§3) For COLO205 cells, the half value of the mean fluorescence intensity was determined to be 90. For LoVo cells, the half value of the mean fluorescence intensity was determined to be 25. […] When an antibody concentration required to reach such value was 10<=x<100 ng/ml, the reactivity was represented by +++, when the same was 100<=x<1000 ng/ml, the reactivity was represented by ++, and when the same was 1000<=x<10000 ng/ml, the reactivity was represented by +. When no binding was observed, the reactivity was represented by −.

B2 was tested. Which “antibody concentration required to reach half value of mean fluorescence intensity” value did it give?
Its value is 10 to 100 ng/mL.

Target: T1, A33 antigen (full-length human A33)
Experiment: FCM competition on COLO205 cells as in Example 10; competitor mouse anti-A33 antibody
Description: as §1

B1 was tested. Which “Inhibition (%)” value did it give?
Its value is 44.6%.

With B2 as the binder, how does the “Inhibition (%)” value read?
The value was 94.6%.

For B3, which “Inhibition (%)” value is on record?
Its value is 0.2%.

B4 was tested. Which “Inhibition (%)” value did it give?
The value was 93.4%.

Which “Inhibition (%)” value does the source give for B5 here?
Its value is 95.3%.

How did the “Inhibition (%)” value turn out when B6 was run?
The value was 15.3%.

Target: T1, A33 antigen (full-length human A33)
Experiment: FCM on COLO205 cells; grade = ng/ml to reach half MFI 45 (+++ 10<=x<100, ++ 100<=x<1000, + 1000<=x<10000)

B1 was tested. Which “antibody concentration required to reach half value of the mean fluorescence intensity” value did it give?
The value was 10 to 100 ng/mL.

With B2 as the binder, how does the “antibody concentration required to reach half value of the mean fluorescence intensity” value read?
Its value is 10 to 100 ng/mL.

B3 was tested. Which “antibody concentration required to reach half value of the mean fluorescence intensity” value did it give?
Its value is 10 to 100 ng/mL.

How did the “antibody concentration required to reach half value of the mean fluorescence intensity” value turn out when B4 was run?
Its value is 100 to 1000 ng/mL.

With B5 as the binder, how does the “antibody concentration required to reach half value of the mean fluorescence intensity” value read?
The value was 100 to 1000 ng/mL.

For B6, which “antibody concentration required to reach half value of the mean fluorescence intensity” value is on record?
The value was 100 to 1000 ng/mL.

Target: T1, A33 antigen (full-length human A33)
Experiment: FCM on NCI-H508 cells; grade = ng/ml to reach half MFI 175 (+++ 10<=x<100, ++ 100<=x<1000, + 1000<=x<10000)

How did the “antibody concentration required to reach half value of the mean fluorescence intensity” value turn out when B1 was run?
Its value is 10 to 100 ng/mL.

For B2, which “antibody concentration required to reach half value of the mean fluorescence intensity” value is on record?
Its value is 10 to 100 ng/mL.

Which “antibody concentration required to reach half value of the mean fluorescence intensity” value does the source give for B3 here?
Its value is 10 to 100 ng/mL.

For B4, which “antibody concentration required to reach half value of the mean fluorescence intensity” value is on record?
The value was 100 to 1000 ng/mL.

With B5 as the binder, how does the “antibody concentration required to reach half value of the mean fluorescence intensity” value read?
The value was 10 to 100 ng/mL.

How did the “antibody concentration required to reach half value of the mean fluorescence intensity” value turn out when B6 was run?
Its value is 100 to 1000 ng/mL.

Target: T1, A33 antigen (full-length human A33)
Experiment: FCM on NCI-H508 cells; grade = ng/ml to reach half MFI 125 (+++ 10<=x<100, ++ 100<=x<1000, + 1000<=x<10000)
Description: as §2, §3

Which “antibody concentration required to reach half value of mean fluorescence intensity” value does the source give for B2 here?
The value was 100 to 1000 ng/mL.

Target: T1, A33 antigen (full-length human A33)
Experiment: FCM on LoVo cells; grade = ng/ml to reach half MFI 25 (+++ 10<=x<100, ++ 100<=x<1000, + 1000<=x<10000)
Description: as §2, §3

How did the “antibody concentration required to reach half value of mean fluorescence intensity” value turn out when B2 was run?
Its value is 10 to 100 ng/mL.

Target: T1, A33 antigen (full-length human A33)
Experiment: FCM on LS174T cells; grade = ng/ml to reach half MFI 125 (+++ 10<=x<100, ++ 100<=x<1000, + 1000<=x<10000)
Description: as §2, §3

For B2, which “antibody concentration required to reach half value of mean fluorescence intensity” value is on record?
The value was 100 to 1000 ng/mL.
